Data as given in PMC7137635.

Experiments:
p62 LIR (Homo sapiens) = p62 LIR (Homo sapiens) (UniProt Q13501); details: cited from earlier work
[1] = target: GST fusion of human OPTN (aa 2-311), Q96CV9-1; assay: phage ELISA; details: Background correction to BSA signal was applied; read off a plot

Chain of GATE-16 (P60520 1-116): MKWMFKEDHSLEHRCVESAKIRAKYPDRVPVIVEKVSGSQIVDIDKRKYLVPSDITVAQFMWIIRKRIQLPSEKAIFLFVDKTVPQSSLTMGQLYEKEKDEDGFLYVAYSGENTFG

| Substance | Kd (p62 LIR (Homo sapiens)) | response [1] |
| --- | --- | --- |
| GATE-16 (from UniProt P60520) | 5.2 µM |  |
| LC3Bwt displayed on phage (from UniProt Q9GZQ8) F11L; R14L; R15N; Q19L; E22D; D23N; [26-28]I (column not resolved, see notes); K53I; K55G |  | 0.91 OD 450 nm |
